Reference: the supplement of paper PMC6379048

Assays:
Assay in all cases: Kd (EC50 corrected by depletion factor)
UPF1 = molecular target: T1, UPF1 (UniProt Q92900)
T1 sequence: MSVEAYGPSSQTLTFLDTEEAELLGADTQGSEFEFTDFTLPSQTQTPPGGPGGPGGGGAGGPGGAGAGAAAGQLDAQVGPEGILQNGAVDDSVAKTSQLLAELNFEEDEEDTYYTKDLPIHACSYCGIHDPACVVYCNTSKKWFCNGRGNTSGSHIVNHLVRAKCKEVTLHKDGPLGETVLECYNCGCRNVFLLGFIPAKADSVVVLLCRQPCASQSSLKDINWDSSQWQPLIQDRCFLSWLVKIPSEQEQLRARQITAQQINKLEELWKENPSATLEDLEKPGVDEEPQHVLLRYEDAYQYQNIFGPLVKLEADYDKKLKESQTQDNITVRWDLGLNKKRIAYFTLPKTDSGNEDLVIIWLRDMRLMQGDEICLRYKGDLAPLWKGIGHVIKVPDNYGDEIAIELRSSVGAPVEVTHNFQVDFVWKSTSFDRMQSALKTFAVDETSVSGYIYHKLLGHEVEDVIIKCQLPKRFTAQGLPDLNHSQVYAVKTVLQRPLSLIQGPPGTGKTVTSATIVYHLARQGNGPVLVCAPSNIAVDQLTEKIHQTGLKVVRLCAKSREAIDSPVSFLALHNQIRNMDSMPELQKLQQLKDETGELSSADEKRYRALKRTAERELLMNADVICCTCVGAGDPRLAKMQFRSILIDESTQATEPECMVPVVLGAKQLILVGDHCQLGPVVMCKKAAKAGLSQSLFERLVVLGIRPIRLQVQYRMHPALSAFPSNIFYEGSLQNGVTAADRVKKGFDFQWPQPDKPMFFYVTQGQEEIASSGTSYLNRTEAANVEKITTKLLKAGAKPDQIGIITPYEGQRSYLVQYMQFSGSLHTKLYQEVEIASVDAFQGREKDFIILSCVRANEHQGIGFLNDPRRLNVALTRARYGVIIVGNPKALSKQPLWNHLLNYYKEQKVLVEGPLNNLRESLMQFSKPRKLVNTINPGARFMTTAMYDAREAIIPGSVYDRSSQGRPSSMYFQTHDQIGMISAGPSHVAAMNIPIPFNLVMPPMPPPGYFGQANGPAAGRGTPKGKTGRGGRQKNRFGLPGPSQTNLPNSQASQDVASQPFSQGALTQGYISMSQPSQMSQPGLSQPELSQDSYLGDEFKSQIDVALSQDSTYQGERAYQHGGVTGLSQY
Method in brief: (§1)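 HEK293-FT lysate (2.5 mg protein/well) was pre-incubated 1 h at 4°C with free RNA oligos (0 nM to 30 μM), then 30 min at 4°C with the same 5′-amino-C6 oligos coupled to NHS-Sepharose beads. Bound proteins were quantified by label-free LC-MS/MS in three biological replicates and two independent experiments, and normalised to the water control. EC50 came from a four-parameter log-logistic fit; Kd is EC50 times a protein-dependent depletion factor.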

CPSF7 = molecular target: T2, CPSF7 (UniProt Q8N684)
T2 sequence: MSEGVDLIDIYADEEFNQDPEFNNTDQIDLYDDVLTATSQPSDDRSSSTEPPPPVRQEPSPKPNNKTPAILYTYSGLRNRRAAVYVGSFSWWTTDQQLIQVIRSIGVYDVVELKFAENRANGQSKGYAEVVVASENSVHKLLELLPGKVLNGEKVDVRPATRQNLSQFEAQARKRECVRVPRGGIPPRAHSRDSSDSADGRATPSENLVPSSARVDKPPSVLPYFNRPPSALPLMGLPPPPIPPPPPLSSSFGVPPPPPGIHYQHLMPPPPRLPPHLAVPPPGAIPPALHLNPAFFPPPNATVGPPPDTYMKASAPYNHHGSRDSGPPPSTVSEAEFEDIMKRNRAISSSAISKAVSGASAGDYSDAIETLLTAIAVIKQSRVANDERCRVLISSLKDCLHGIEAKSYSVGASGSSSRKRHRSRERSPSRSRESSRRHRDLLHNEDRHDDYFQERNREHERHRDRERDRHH
Method in brief: as §1

MRPL48 = MRPL48 (UniProt Q96GC5)
Method in brief: as §1

HNRNPA0 = molecular target: T3, HNRNPA0 (UniProt Q13151)
T3 sequence: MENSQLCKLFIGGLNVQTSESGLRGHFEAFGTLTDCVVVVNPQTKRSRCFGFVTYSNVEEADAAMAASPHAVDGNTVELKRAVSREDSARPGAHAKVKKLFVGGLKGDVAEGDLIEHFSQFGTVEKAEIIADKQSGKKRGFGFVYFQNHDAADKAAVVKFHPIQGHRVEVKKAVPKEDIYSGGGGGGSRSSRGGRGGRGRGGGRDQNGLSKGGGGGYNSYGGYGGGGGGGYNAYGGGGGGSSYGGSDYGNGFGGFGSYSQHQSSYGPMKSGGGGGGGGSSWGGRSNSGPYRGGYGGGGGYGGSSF
Method in brief: as §1

CSTF3 = molecular target: T4, CSTF3 (UniProt Q12996)
T4 sequence: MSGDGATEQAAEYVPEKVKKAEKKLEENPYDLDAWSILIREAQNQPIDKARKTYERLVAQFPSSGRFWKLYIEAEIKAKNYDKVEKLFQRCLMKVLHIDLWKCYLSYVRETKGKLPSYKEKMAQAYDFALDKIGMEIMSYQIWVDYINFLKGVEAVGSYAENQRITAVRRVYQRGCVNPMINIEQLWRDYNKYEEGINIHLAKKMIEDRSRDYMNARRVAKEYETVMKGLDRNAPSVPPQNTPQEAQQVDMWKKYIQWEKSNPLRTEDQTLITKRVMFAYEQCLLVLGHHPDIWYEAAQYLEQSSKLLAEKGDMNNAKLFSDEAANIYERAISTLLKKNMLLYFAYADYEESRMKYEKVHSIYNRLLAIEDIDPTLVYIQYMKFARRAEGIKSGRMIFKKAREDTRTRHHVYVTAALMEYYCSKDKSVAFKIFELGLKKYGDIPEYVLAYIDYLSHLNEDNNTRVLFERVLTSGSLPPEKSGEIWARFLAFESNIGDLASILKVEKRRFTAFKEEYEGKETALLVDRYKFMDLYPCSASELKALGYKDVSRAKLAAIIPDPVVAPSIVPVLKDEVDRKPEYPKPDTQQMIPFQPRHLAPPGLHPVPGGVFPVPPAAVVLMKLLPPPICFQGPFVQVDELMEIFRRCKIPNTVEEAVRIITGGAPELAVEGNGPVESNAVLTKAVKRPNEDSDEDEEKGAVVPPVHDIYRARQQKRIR
Method in brief: as §1

Which results are given for AAUAAA?
Kd (UPF1): 2.64 µM; Kd (CPSF7): 2.1 µM

Which Kd (MRPL48) does the source give for CUGUCCU here?
Its Kd is 0.0961 µM.

With UAUUUAU as the sequence, how does the Kd (HNRNPA0) read?
Its Kd is 3.2 µM.

And the Kd (CSTF3)?
The Kd was 0.352 µM.
